Assay results from article PMC7617670, “Activity Regulation of a Glutamine Amidotransferase Bienzyme Complex by Substrate-Induced Subunit Interface Expansion” (ACS catalysis, 2025).

Tests used:
Assay in all cases: ITC; 250 μM PabB titrated into 25 μM PabA in the cell; 25 °C; 50 mM Tris/HCl pH 7.5, 50 mM KCl, 5 mM MgCl2; without Cho and Gln; one set of sites
Conditions in all cases: both partners purified
PabB variant bE119D = molecular target: T1, PabB variant bE119D (Escherichia coli, UniProt P05041 1-453, bE119D)
T1 construct: PabB, synthase subunit of ADCS, E. coli; construct as m2 with one exchange; Made by QuikChange mutagenesis from the construct of m2; source: E. coli BL21-Gold (DE3), purified (Ni-IMAC, preparative gel filtration)
T1 sequence: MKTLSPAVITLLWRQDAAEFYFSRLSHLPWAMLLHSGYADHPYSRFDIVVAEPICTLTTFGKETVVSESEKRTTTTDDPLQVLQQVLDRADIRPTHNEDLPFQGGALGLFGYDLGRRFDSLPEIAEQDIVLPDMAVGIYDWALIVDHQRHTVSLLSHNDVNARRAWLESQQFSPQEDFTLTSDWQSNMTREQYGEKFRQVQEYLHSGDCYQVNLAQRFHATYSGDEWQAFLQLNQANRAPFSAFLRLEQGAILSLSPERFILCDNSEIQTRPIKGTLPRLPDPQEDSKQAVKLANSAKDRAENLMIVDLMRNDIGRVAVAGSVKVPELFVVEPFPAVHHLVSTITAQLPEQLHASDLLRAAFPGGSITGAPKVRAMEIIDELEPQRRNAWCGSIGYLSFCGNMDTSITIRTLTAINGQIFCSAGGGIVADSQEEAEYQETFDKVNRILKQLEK

PabB variant bE119R = molecular target: T2, PabB variant bE119R (Escherichia coli, UniProt P05041 1-453, bE119R)
T2 construct: PabB, synthase subunit of ADCS, E. coli; construct as m2 with one exchange; Made by QuikChange mutagenesis from the construct of m2; source: E. coli BL21-Gold (DE3), purified (Ni-IMAC, preparative gel filtration)
T2 sequence: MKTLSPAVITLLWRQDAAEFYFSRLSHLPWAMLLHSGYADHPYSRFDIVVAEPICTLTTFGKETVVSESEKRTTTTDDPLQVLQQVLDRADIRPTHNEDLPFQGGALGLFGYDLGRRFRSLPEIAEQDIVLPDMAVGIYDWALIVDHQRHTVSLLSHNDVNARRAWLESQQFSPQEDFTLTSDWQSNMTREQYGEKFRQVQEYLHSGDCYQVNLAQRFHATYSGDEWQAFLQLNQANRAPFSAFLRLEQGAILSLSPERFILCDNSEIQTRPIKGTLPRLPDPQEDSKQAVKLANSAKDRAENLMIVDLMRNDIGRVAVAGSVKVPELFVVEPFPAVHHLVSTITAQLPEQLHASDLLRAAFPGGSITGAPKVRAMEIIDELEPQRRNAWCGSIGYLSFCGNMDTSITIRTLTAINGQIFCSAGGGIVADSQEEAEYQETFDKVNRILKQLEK

PabB variant bY210A = molecular target: T3, PabB variant bY210A (Escherichia coli, UniProt P05041 1-453, bY210A)
T3 construct: PabB, synthase subunit of ADCS, E. coli; construct as m2 with one exchange; Made by QuikChange mutagenesis from the construct of m2; source: E. coli BL21-Gold (DE3), purified (Ni-IMAC, preparative gel filtration)
T3 sequence: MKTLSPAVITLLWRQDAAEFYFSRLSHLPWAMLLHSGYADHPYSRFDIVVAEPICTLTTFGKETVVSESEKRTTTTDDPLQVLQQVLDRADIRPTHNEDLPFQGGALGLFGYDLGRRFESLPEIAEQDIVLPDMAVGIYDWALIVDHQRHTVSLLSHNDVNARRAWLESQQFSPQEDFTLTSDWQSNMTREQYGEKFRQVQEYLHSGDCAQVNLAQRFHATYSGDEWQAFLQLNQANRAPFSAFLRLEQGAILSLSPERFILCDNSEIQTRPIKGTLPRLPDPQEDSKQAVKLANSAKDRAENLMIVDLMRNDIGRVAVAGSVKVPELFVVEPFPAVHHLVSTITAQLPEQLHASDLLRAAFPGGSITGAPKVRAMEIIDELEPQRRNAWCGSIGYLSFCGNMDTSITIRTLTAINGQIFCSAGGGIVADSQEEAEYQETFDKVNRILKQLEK

PabB variant bY210F = molecular target: T4, PabB variant bY210F (Escherichia coli, UniProt P05041 1-453, bY210F)
T4 construct: PabB, synthase subunit of ADCS, E. coli; construct as m2 with one exchange; Made by QuikChange mutagenesis from the construct of m2; source: E. coli BL21-Gold (DE3), purified (Ni-IMAC, preparative gel filtration)
T4 sequence: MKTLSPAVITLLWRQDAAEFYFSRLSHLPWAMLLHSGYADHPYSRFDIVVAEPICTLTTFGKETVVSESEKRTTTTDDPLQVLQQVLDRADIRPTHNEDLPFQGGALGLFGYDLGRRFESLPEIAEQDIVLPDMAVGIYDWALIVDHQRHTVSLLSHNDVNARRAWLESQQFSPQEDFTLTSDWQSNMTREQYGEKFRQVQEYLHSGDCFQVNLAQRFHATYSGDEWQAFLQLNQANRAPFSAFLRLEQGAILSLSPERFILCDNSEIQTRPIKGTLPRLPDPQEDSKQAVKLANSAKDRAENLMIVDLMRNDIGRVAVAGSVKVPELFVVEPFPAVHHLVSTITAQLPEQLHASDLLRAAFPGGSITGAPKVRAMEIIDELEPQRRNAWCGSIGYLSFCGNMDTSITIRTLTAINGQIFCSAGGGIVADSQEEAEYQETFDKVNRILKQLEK

B1: PabA, glutaminase subunit of aminodeoxychorismate synthase (ADCS) from Escherichia coli, wild type (enzyme)
chain: MILLIDNYDSFTWNLYQYFCELGADVLVKRNDALTLADIDALKPQKIVISPGPCTPDEAGISLDVIRHYAGRLPILGVCLGHQAMAQAFGGKVVRAAKVMHGKTSPITHNGEGVFRGLANPLTVTRYHSLVVEPDSLPACFDVTAWSETREIMGIRHRQWDLEGVQFHPESILSEQGHQLLANFLHR
notes: PabA, class I glutaminase subunit of ADCS, E. coli; the gene was cloned into pET28a; Form used for SEC, ITC and kinetics; TEV cleavage is told only of the proteins used for crystallization; The G5H-Tag stands between the TEV site and the start methionine of PabA; also called wt PabA; ADCS glutaminase subunit; source: E. coli BL21-Gold (DE3), purified (Ni-IMAC, preparative gel filtration)
With B1 the Kd (PabB variant bE119D) was 840 nM, the Kd (PabB variant bE119R) was 540 nM and the Kd (PabB variant bY210A) was 5500 nM. The Kd (PabB variant bY210F) was 530 nM.
